Columns and labels:
[1] = target: endotoxin (endotoxin concentrate; δ-endotoxin of Bacillus thuringiensis)
[2] = target: endotoxin (endotoxin concentrate; δ-endotoxin of Bacillus thuringiensis); remark: listed apart in the source
[3] = target: endotoxin (endotoxin concentrate; δ-endotoxin of Bacillus thuringiensis); remark: listed apart in the source

| Substance | RPW egg hatching rate, endotoxin solution with the LEA protein at 1:40, heat stress 42 °C, day 5 [1] [%] | RPW larval mortality rate, endotoxin solution with the LEA protein, 42 °C, 10 days [2] [%] | RPW adult mortality rate, endotoxin solution with the LEA protein, 42 °C, 10 days [3] [%] |
| --- | --- | --- | --- |
| recombinant Phoenix dactylifera LEA2 protein PdLEA2.3 | 15 | 83.3 | 73.6 |
| recombinant Phoenix dactylifera LEA2 protein PdLEA2.4 | 11.3 | 83.6 | 73.3 |
| recombinant Citrullus colocynthis dehydrin CcDHN | 15 | 89.7 | 77.6 |
| recombinant Prosopis cineraria dehydrin PcDHN | 13.6 | 88 | 76.3 |
| recombinant Phoenix dactylifera LEA2 protein PdLEA2.2 | 11 | 84.7 | 75 |
| recombinant Phoenix dactylifera dehydrin PdDHN | 11.3 | 85.6 | 75 |

Source: patent US12385050B1
